B1: GST-Sec23 (natural protein, S. cerevisiae)
chain: MDFETNEDINGVRFTWNVFPSTRSDANSNVVPVGCLYTPLKEYDELNVAPYNPVVCSGPHCKSILNPYCVIDPRNSSWSCPICNSRNHLPPQYTNLSQENMPLELQSTTIEYITNKPVTVPPIFFFVVDLTSETENLDSLKESIITSLSLLPPNALIGLITYGNVVQLHDLSSETIDRCNVFRGDREYQLEALTEMLTGQKPTGPGGAASHLPNAMNKVTPFSLNRFFLPLEQVEFKLNQLLENLSPDQWSVPAGHRPLRATGSALNIASLLLQGCYKNIPARIILFASGPGTVAPGLIVNSELKDPLRSHHDIDSDHAQHYKKACKFYNQIAQRVAANGHTVDIFAGCYDQIGMSEMKQLTDSTGGVLLLTDAFSTAIFKQSYLRLFAKDEEGYLKMAFNGNMAVKTSKDLKVQGLIGHASAVKKTDANNISESEIGIGATSTWKMASLSPYHSYAIFFEIANTAANSNPMMSAPGSADRPHLAYTQFITTYQHSSGTNRIRVTTVANQLLPFGTPAIAASFDQEAAAVLMARIAVHKAETDDGADVIRWLDRTLIKLCQKYADYNKDDPQSFRLAPNFSLYPQFTYYLRRSQFLSVFNNSPDETAFYRHIFTREDTTNSLIMIQPTLTSFSMEDDPQPVLLDSISVKPNTILLLDTFFFILIYHGEQIAQWRKAGYQDDPQYADFKALLEEPKLEAAELLVDRFPLPRFIDTEAGGSQARFLLSKLNPSDNYQDMARGGSTIVLTDDVSLQNFMTHLQQVAVSGQA
B2: 6xHis-Grh1 (natural protein, S. cerevisiae, UniProt Q04410 1-372, looked up)
chain: MFRIAKNLVRTFEQSVQDTLALSQDSSNLDAFFQSIPPNLLSAQLESPVDAVSEGVKHTNVNETLSGLRIVWVDEMQFQLQSFFDYIVGFNDDPVPVVSNQHGFSYPDYRRITSIFNEHCGRTLKVNIWSAKGGTFRDEYISIISKESDDLDDVSLNHDERRPSSGEAHQFQALGFKVQWTPLIASTFTYHILNVNIPDGPAQSAGLIPDEDYIIGCQDGLLATGGETLLQDIVRSRANYDLVLYVYNKVSDCVRPITVHIGPDGRLGCNVGYGFLHRIPTVKHCPQQAQQQGQDDNPVPVPVPVESETAFVPSAFTAPPVPTKKKSKNKKGTQPLAMDDYFNEGRDKSSTAAKSAESDILAPPPQKQSSSD

Columns and labels:
[1] = target: Sec13/Sec31 outer coat complex (wild type, His tag removed) (S. cerevisiae, UniProt Q04491 1-297; P38968 1-1273); assay: pull-down
[2] = target: B1; assay: pull-down

Sec13/Sec31 outer coat complex (wild type, His tag removed), sequence (Q04491 whole entry, chain 1 of 2): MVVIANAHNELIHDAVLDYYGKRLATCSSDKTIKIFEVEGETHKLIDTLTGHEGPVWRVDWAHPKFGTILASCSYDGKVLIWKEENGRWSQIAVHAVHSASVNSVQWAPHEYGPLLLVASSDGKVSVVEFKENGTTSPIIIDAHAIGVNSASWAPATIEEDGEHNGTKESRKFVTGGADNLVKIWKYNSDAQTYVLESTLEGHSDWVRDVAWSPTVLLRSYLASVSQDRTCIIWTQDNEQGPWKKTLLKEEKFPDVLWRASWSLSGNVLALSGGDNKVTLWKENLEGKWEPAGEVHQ
Sec13/Sec31 outer coat complex (wild type, His tag removed), sequence (P38968 whole entry, chain 2 of 2): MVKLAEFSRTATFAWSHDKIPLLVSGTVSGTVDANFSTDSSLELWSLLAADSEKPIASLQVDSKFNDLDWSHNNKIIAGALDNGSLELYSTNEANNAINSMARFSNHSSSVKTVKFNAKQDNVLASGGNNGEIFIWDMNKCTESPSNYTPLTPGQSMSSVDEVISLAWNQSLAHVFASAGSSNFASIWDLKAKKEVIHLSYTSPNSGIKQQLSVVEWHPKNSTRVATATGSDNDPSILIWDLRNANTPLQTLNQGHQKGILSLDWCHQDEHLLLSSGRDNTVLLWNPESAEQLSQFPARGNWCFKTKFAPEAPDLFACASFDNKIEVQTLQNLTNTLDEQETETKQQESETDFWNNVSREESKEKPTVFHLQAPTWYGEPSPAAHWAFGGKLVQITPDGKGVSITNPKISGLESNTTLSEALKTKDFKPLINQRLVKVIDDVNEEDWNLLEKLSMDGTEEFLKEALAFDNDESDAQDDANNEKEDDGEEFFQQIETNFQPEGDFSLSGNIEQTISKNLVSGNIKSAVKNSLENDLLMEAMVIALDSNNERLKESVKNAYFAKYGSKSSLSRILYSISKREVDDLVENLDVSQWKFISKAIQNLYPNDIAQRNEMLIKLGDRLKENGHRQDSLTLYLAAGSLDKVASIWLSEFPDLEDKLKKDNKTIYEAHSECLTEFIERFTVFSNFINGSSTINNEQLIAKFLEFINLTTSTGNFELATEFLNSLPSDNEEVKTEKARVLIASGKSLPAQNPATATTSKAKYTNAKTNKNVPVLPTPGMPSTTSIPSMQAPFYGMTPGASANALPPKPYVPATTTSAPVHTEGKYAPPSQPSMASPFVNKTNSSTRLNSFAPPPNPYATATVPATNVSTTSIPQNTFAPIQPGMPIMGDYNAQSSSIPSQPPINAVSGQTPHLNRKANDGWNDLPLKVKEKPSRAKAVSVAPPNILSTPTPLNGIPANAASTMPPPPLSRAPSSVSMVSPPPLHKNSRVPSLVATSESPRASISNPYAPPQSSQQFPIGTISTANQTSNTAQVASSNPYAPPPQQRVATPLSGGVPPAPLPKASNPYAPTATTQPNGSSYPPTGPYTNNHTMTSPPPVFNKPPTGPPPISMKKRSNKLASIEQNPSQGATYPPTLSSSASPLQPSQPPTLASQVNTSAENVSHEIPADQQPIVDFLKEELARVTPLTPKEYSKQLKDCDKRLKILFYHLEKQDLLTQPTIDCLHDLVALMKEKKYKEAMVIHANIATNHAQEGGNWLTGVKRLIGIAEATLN

Binder | binding result [1] | binding result [2]
B1 | binds | –
B2 | – | binds

— paper doi:10.1101/2020.04.15.043356 (bioRxiv, 2020)
